Data: patent publication US9994644B2, “mAB 2 anti-Met antibody” (Agency for Science, Technology and Research, priority 2013, dated 2018)
Entries after “also recorded” stand apart in the source; their conditions may differ.

Assays:
[1] = target: T1, native c-Met on live SNU-5 cells (Homo sapiens, UniProt P08581); assay: Temperature sensitivity of antibody binding by flow cytometry; details: live SNU-5, 10 μg/mL mAb, 1 hr
T1 construct: native c-Met expressed on the cell surface of SNU-5 cells; host or cells: SNU-5
T1 sequence (P08581 25-1390): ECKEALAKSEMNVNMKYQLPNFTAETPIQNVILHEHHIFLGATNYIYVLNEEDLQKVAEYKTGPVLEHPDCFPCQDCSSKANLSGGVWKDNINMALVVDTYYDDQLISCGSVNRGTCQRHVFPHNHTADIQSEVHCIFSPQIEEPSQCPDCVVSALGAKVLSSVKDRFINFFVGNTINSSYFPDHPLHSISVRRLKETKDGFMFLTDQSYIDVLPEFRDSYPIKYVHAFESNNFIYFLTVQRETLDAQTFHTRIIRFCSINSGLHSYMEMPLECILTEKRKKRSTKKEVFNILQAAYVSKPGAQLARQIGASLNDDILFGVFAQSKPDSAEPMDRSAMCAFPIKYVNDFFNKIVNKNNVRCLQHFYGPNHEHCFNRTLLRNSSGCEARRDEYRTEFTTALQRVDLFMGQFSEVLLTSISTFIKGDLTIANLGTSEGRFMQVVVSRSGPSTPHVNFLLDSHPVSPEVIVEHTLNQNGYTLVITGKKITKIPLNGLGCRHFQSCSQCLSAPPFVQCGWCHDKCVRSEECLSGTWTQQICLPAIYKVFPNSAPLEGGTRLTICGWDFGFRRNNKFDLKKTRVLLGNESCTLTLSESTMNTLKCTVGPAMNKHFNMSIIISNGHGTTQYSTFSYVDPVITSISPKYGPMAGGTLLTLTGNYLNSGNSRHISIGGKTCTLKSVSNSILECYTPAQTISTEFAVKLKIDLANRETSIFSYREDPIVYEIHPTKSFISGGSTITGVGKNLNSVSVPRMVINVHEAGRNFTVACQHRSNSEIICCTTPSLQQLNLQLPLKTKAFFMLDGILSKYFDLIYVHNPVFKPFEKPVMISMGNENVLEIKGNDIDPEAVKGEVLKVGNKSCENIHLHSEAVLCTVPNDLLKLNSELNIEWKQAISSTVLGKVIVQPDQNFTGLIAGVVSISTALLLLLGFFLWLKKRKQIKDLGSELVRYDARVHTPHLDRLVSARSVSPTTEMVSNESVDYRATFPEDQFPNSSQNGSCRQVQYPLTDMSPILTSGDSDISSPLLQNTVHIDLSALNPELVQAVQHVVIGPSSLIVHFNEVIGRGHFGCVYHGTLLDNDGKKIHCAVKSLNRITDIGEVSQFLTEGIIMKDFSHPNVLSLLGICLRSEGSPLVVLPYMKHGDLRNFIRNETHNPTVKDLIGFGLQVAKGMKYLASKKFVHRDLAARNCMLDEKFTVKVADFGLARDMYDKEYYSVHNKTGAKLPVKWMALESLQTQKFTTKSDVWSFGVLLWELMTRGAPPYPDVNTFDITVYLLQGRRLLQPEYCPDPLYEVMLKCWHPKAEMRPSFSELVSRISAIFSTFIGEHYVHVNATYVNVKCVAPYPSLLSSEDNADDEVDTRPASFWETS
Protocol: To determine if temperature affects the binding affinity of anti-α-chain monoclonal antibody to native c-Met, mAb 2, 13, 11 and 18 were incubated with live SNU-5 cells at 4° C. or 37° C. Binding of monoclonal antibody to native c-Met expressed on the cell surface of live SNU-5 cells was detected using anti-mouse secondary antibody conjugated with Alexa Fluor®488 dye and analysed by flow cytometry. Antibody binding, which correlates with fluorescence intensity, was compared at the different temperatures. […] It is plausible that the reduction of antibody binding is due to the unavailability of antibody's epitope on native c-Met expressed on live SNU-5 cells. c-Met is a dynamic protein at normal physiological temperature and becomes rigid at low temperature, causing certain epitopes to be obscured.
10 μg/mL of anti-α-chain monoclonal antibody were incubated with live SNU-5 cells for 1 hr at 4° C. or 37° C. Cells were harvested and washed once in cold PBS. Antibody binding to live cells was determined by Alexa Fluor®488-conjugated anti-mouse secondary antibodies (Invitrogen #A11029). Cells were resuspended in 1% BSA/PBS and analysed by flow cytometry.

[2] = system: caspase activation in SNU-5 cells; assay: Caspase-Glo 3/7 caspase activation assay; type: cell-based, human; details: SNU-5, 72 hrs; mAb 10 μg/mL, SU11274 5 μM
Protocol: (§1) In order to determine if these antibodies have any physiological effects on tumour cells, 10 μg/mL of mAb was added to SNU-5 cells. […] This indicates SU11274 mode of mechanism is by activation of caspase which in turn result in apoptosis of SNU-5 tumour cells.
(§2) CellTiter-Glo® luminescent cell viability assay and Caspase-Glo® 3/7 Assay (Promega, U.S.A.) were used to determine cell viability and caspase activation respectively. SNU-5 cells (1×10^5 cells) were seeded in each 96-well and treated for 72 hrs before analysis. Cell viability and caspase activation were performed according to manufacturer's protocol. Luminescence was read using the EnVision plate reader (PerkinElmer, U.S.A.).

[3] = target: T2, c-Met α-chain peptides (Homo sapiens, UniProt P08581); assay: Pepscan ELISA-based epitope mapping; type: binding; set-up: mAb 2 binding to peptide O27: dose or concentration left out as unconfirmed; details: absorbance at 450 nm
T2 construct: consecutive overlapping peptides that span the entire c-Met α-chain; purchased Mimotopes (Australia); host or cells: chemical synthesis
Protocol: (§3) Identifying the region of c-Met bound by the antibody is important in determining whether the antibody might be able to block c-Met from binding to its ligand, HGF. Using an ELISA-based assay (Pepscan), synthesised peptides were added to strepatvidin-coated plates and antibody binding to their respective epitopes was determined colorimetrically. The peptides were consecutive overlapping peptides that span the entire c-Met α-chain.
(§4) Peptides that were linked to biotin by an SGSG linker sequence at the N-terminus were synthesised by Mimotopes (Australia). Peptides for Pepscan: Peptides that span the entire α-chain of c-Met were synthesised. A total of fifty-five peptides with consecutive, overlapping sequences were synthesised. […]
(§5) Variations of peptides O28 and O29, where each amino acid residue was sequentially substituted for an alanine residue, were synthesised. […] Colour change was monitored by eye and the reaction was stopped by adding 100 mM sulphuric acid. Absorbance was read at 450 nm in a microplate reader (SPECTRAmax PLUS^384, Molecular Device, U.S.A.). […] Computer imaging of the epitopes were analysed by PyMol (DeLano Scientific LLC, U.S.A.) software.
(§6) Pepscan analysis was used to determine the region of c-Met α-chain bound by mAb 2. […] Binding of the antibody was detected by colorimetric assay and analysed by absorbance reading at […].

[4] = system: c-Met α-chain peptides; assay: Pepscan ELISA-based epitope mapping; type: binding, human; set-up: mAb 2 binding to peptide O27: dose or concentration left out as unconfirmed; details: absorbance at 450 nm
Protocol: as §3, §4, §5, §6

[5] = system: SNU-5 cells; assay: Cell growth by cell count (ADAM cell counter); type: cell-based, human; details: SNU-5, 10 μg/mL mAb, 72 hours post treatment
Protocol: as §1
Cells were seeded and treated with anti-α-chain c-Met monoclonal antibodies for 72 hrs. Cells were harvested and counted using the automated ADAM cell counter (Digital Bio, Korea).

[6] = target: T1, native c-Met on live SNU-5 cells; assay: Flow cytometry of antibody binding to live SNU-5 cells; details: 1 μg/mL mAb, FITC secondary antibody
Protocol: Flow cytometry was used to determine if our monoclonal antibodies could bind to native c-Met on live cells. SNU-5 cells were incubated with 1 μg/mL of monoclonal antibody. Binding of anti-α-chain c-Met monoclonal antibodies to native c-Met expressed on the cell surface of SNU-5 cells was detected using anti-mouse secondary antibody conjugated with FITC dye. T47D, a human breast cancer cell line expressing low levels of c-Met, was used in this assay to determine if the antibodies bind non-specifically to the cell surface.
SNU-5 cells (1×10^6 cells) were washed once in cold PBS before blocking in 1% BSA/PBS. Cells were washed twice before incubating with anti-α-chain c-Met monoclonal antibodies. 1 μg/mL anti-α-chain monoclonal antibodies were used. Cells were incubated with goat anti-mouse IgG FITC-conjugated secondary antibodies (Invitrogen) and finally resuspended in 1% BSA/PBS. Flow cytometry was performed using Becton Dickinson (U.S.A.) FACScan. Cell Quest (Becton Dickinson) and FlowJo (Tree Star Inc., U.S.A.) software was used for data analysis.

[7] = system: SNU-5 cells; assay: CellTiter-Glo luminescent cell viability assay; type: cell-based, human; details: SNU-5, 72 hrs; mAb 10 μg/mL, SU11274 5 μM
Protocol: as §1, §2

mAb 2 binding to peptide O27 [3]: does not bind
B1: mAb 2: murine bivalent anti-α-chain c-Met monoclonal antibody, IgG1, kappa; CDRs SEQ ID NO: 2-7; epitope IEE and CPDC (antibody, listed as Homo sapiens)
heavy: QVQLKESGGGLVQPGGSLTLSCATSGFTFTDHYMSWVRQPPGKALEWLAFIRNKAKGYTTEYNASVRGRFTISRDNSQNIVYLQMNTLRTEDSATYYCARDGVGIAYWGQTLVTVSAAKTTPPSVYPLAP
light: SIVMTQSPLSLPVSLGDQASISCRSSQSLENINGNTYKNWYFQKPGQSPQLLIYRVSNRVSGVLDRFSGSGSGTDFTLKITRVEAEDLGVYFCLQVTHVPWTFGGGTKLEIKRADAAPTKSIS
change of antibody binding between 4° C. and 37° C. [1]: most drastic peak shift; also recorded: temperature sensitive
caspase activation [2]: reduced caspase activation; also recorded: do not activate caspase activation
mAb 2 binding to peptides O28 and O29 [4]: equal affinity; also recorded: no binding preference
cell growth (cell count) [5]: strongest cell growth reduction; also recorded: reduction of SNU-5 cell growth; also recorded: most effective in reducing cell proliferation
binding to native c-Met (fluorescence intensity) [6]: strongest fluorescence intensity; also recorded: strongest binding; also recorded: highest fluorescence staining; also recorded: high affinity and specificity; also recorded: strongly
cell viability [7]: reduced cell viability
